According to the DeepSol protein solubility set:

Assay: soluble on expression in E. coli; label from the status in PepcDB or PDB records

Row | Sequence | soluble on expression in E. coli
1 | MDDLRIEYDAPNDVYFPGQAVTGKVIIQNREWIKARFLKICIHGGAHTHWSESRSTYRTNTRGERERFTENVNYNATINYLTGESIAWQSRDGTDRLPAGTNVFPFAFNLPINCAPSFEGCHGHIRYDVHVELDRPWKFNKKSRKCFSVIPVFDLNITPTAINPMVNTASKNTGLILKKGLVTITVNLPKRGYVAGEIMPITVNIDNGSKVAVSEVSAKMTQLSHFHASHGNMIGVTAHTHNRNDEKLVAESRRVADVPAKSRGQMVLSMKIPAIVPSFNCPIIAVDYCLTVKVSTQQIFGGGLKCEFPLIIGTIPIRQMNQAAPGAMPTMPSVSAPPYPVVAGASASQAVYPTAPSAPPASPGGEAPPSYEESVHGAGKVEDAEAFAPRYPVYNNLPQQQNSQLPPEYAPPLPAKSGF | not soluble
2 | MDDNNSEFKHLFPIAVEVTEGKTYVWCGCGKSKTQPFCDKENCGDKAVSFIAELTEDVYFCNCKQTKNPPFCDGSHAKILLEVVKKKAKQMNRKGSLKLEHHHHHH | not soluble
3 | MDDRRPQLTEEQLLFRIALTHVKGVGSVLARQLLSAMGSPEAIFSDRKELVQRLPKAPRRLLDAIFSPSVMEEARRKLDQALKAGLNMYFITDDNYPYRLKECVDAPILLYSKGNVDLSPRRVLSIVGTRNITAYGRTATERIVSGLAETIPDLLIVSGLAYGVDVAAHKAALDNGLPTVAVLAHGLDRIYPSGHRSIAMEMLRNGGLLTDYPMGTEPERFNFVGRNRIVAGLSDATLVIESAEKGGSLITAGLAFGYNREVLALPGRATDSRSAGCNALIRDQKAALVSSAQDVLTLLDWSSTIDAKPQTLNFRPDSWPDTPVAECLLRAGTASVDELTRATGLPINDVSAQLFDLELDGLVQSQPGGIYSVI | not soluble
4 | MDDSSEEANQFEPPPAIRKSTRAVNNLSPHQKEVRCQCGTNNTDNRLIKCVECEKWQHAICMSVMPLDIIMTYKCEMCEPRLLMVSRSQARAYQGVEPEPREVRKKGRNQSVNLEEFLEFLSEASENISRPLALTTLFEDYKEHINYPQSVRILRKQLESNLLETISMSPNYYADRKAQMLFAMGLRVKGEFLERLERNAVVEVDGYHRITFYKSKNLEFRGKHRVGRFPLVNRRKSAESTSQQHGNSGEEDDDDIFIDLVVPVTGNSRWNQFPVKQEIPDEQSFGSASTLPNAEIEPNLQYSLSDTMTTGSASTWNMAATPPSEMRGIMMESMNGLHALQSASYPPYQEMQEMLCVQHTMMKSMHEIIKTQSDFYREMFKTRAIAGAPPAPATTSLRAFLHFLKGYVDYLESEQLVDCSRLTQQHLETCRAADKLISMEKLLTGLAVATTIAEAHLSDVSAIINGASAMEFYKFIEIYASNQSNSAFSGLCTDLKQKIQALVNMDKKIPFKELSRAFRTAISLVSQ | not soluble
5 | MDEQISKSQKKRDAHYLQDIGIKFIDLSASKLDSLPLPDNLRQAIVDARSIKSHGAKRRQAQLIGKLMRAADFEAILAAYEKILEEESSVTASFHEIELWRDRLLQDGKDALTEFIDAYQPEDVQQLRQLIKKALDDQMKEKNTGAAKALFRYLRSLIK | not soluble
6 | MDERIQALRKEVDRVNREILRLLSERGRLVQEIGRLQTELGLPHYDPKREEEMLAYLTAENPGPFPDETIRKLFKEIFKASLDLEERQDQKKFLYSKRHKPEPTRVRVKDVVFGEKPLLIAGPCSIESEEQIMATARFLAARGVRVLRGGAFKPRTSPYGFQGLGVEGLKLGRKAADAFGMVFVTEVMDTRDVEVVAEYADILQIGARNMQNFALLKEVGKARRPVLLKRGLSATMEEWFYAAEYILAQGNEQVILAERGIRTFERWTRNTLDLSAVALAKQETHLPVVVDVTHAAGRTDLLAPLARAALAVGADGVHVEVHPNPKVALSDNQQQMDFAQFDRFLEAIRDLLQAP | soluble
7 | MDERRKRKAKDQLSPYSNPDEENDRHNTAIEPSPSASRKRAKARVGDLGTIADSGPLKGVLSSVNILKPRIRSDRISGLNRCFVNAVQKVVEKESNKSLLYLFRQYEKYYEELNEASD | not soluble
8 | MDFKQRHTWLKIASCKSISAKKRASIWQKLTEFDQYEMTTQTFAESFFPVDKLAQILMELETAEACFFDDVTLIWILDDAYPALLREIYEAPPILFCKGNIDLLQQQAIAIVGTRQMSEYGRKACMKIASELAENKLTIVSGMAIGIDSTAHRATLNKQGATIAVLGSGVNKVYPKKNELLAKEIVKEGLLLSEYLPDEEAKRWHFPERNRIISGLAIGTVIIEAAERSGSLITADIALEQNRQVFAVPGNIFIDTWQGTNYLIQEGAKLVMNSNNIIEEFIQIKP | not soluble
